Patent US20090280528

Legend:
[1] = system: T1, Sbo13I restriction endonuclease (Shigella boydii 13); assay: cleavage_in_vitro; conditions: 37 C, 10 mM Mg, 55 mM NaCl, pH 7.5; approximate value; lambda DNA assay
T1 sequence: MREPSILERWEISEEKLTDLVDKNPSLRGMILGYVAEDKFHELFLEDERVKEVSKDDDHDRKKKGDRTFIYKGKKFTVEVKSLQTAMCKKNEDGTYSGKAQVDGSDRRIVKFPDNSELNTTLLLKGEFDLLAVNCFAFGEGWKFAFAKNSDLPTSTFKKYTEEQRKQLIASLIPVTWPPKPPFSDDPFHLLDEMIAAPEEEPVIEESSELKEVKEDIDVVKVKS

[2] = system: T2, NruI restriction endonuclease (recombinant) (Nocardia rubra); assay: cleavage_in_vitro; conditions: 37 C, 30 min, NEB buffer 2; complete digestion pattern; approximate value
T2 sequence: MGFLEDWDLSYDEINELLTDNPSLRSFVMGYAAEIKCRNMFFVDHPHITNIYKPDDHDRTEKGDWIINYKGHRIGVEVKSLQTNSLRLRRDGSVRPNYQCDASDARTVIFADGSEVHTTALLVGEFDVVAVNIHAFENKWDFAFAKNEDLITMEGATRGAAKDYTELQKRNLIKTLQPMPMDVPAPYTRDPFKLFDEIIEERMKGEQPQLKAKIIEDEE

Q: What does the source list for Lambda phage DNA?
A: activity (units per gram wet cell paste) [1]: 100000; activity (units per gram wet cells) [2]: 6.5e+06
